B1: Isobutyloxycarbonyl-D-seryl-L-alanyl-argininal (peptide)
peptide: isobutyloxycarbonyl-[dS]-Ala-[Argininal]
modifications: not fully specified (C-terminus); printed as i-Butoxycarbonyl-D-Ser-L-Ala-Argininal; also: trifluoroacetate salt
B2: i-butoxycarbonyl-D-Ser-Ala-Arg-CO-phenethylamide, trifluoroacetate salt (peptide)
peptide: Isobutyloxycarbonyl-[dS]-Ala-Arg-{CO‑phenethylamide}
modifications: also: trifluoroacetate salt
B3: n-butyloxycarbonyl-D-seryl-alanyl-argininal (peptide)
peptide: {n‑butyloxycarbonyl}-[dS]-Ala-[argininal]
B4: N-α-(3-phenylpropyl)-D-seryl-alanyl-argininal, trifluoroacetate salt (peptide)
peptide: {3‑phenylpropyl}-[dS]-Ala-Arg-{aldehyde′}
modifications: also: trifluoroacetate salt
B5: benzyloxycarbonyl-D-homoseryl-prolyl-argininal (peptide)
peptide: Cbz-[d(hSer)]-Pro-[argininal]
B6: methyloxycarbonyl-D-seryl-alanyl-argininal (peptide)
peptide: methyloxycarbonyl-[dS]-Ala-[argininal]
B7: benzyloxycarbonyl-D-alanyl-alanyl-argininal (peptide)
peptide: Cbz-[dA]-Ala-Arg-{aldehyde′}
B8: Benzylsulfonyl-D-Ser-Ala-Arg-al, Trifluoroacetate Salt (peptide)
peptide: benzylsulfonyl-[dS]-Ala-Arg-{aldehyde′}
modifications: also: trifluoroacetate salt
B9: N-α-N-β-dibenzyloxycarbonyl-D-2,3-diaminopropionyl-alanyl-argininal (peptide)
peptide: Cbz-[dDap](Cbz)-Ala-[argininal]
B10: trans-β-Styrenesulfonyl-D-seryl-L-alanyl-argininal (peptide)
peptide: {trans‑β‑styrenesulfonyl}-[dS]-Ala-[argininal]
B11: benzyloxycarbonyl-D-seryl-prolyl-argininal (peptide)
peptide: Cbz-[dS]-Pro-[argininal]
B12: benzylazacarbonyl-D-seryl-alanyl-argininal (peptide)
peptide: benzylazacarbonyl-[dS]-Ala-Arg-{aldehyde′}
B13: fluorenylmethyloxycarbonyl-D-seryl-alanyl-argininal (peptide)
peptide: fluorenylmethyloxycarbonyl-[dS]-Ala-[argininal]
B14: benzyloxycarbonyl-D-seryl-L-seryl-argininal (peptide)
peptide: Cbz-[dS]-Ser-Arg-{aldehyde′}
B15: (-)menthyloxy-carbonyl-D-seryl-alanyl-argininal (peptide)
peptide: {(−)menthyloxycarbonyl}-[dS]-Ala-[Argininal]
B16: 2-ethylhexyloxy-carbonyl-D-seryl-alanyl-argininal (peptide)
peptide: {2‑ethylhexyloxycarbonyl}-[dS]-Ala-Arg-{aldehyde′}
B17: benzyloxycarbonyl-D-seryl-2-glycyl-argininal (peptide)
peptide: Cbz-[dS]-Gly-Arg-{aldehyde′}
B18: 2-phenylethylsulfonyl-D-seryl-alanyl-argininal (peptide)
peptide: {2‑phenylethylsulfonyl}-[dS]-Ala-Arg-{aldehyde′}
B19: benzyloxycarbonyl-D-allothreonyl-sarcosyl-argininal (peptide)
peptide: Cbz-[d(aThr)]-[Sar]-Arg-{aldehyde′}
B20: isopropyloxycarbonyl-D-seryl-alanyl-argininal (peptide)
peptide: Isopropoxycarbonyl-[dS]-Ala-[argininal]
B21: benzyloxycarbonyl-D-seryl-alanyl-argininal (peptide)
peptide: Cbz-[dS]-Ala-[argininal]
B22: (+)menthyloxy-carbonyl-D-seryl-alanyl-argininal (peptide)
peptide: {(+)menthyloxycarbonyl}-[dS]-Ala-[Argininal]
B23: benzyloxycarbonyl-D-threonyl-prolyl-argininal (peptide)
peptide: Cbz-[dT]-Pro-[argininal]
B24: 3-phenylpropylsulfonyl-D-seryl-alanyl-argininal (peptide)
peptide: {3‑phenylpropylsulfonyl}-[dS]-Ala-Arg-{aldehyde′}
B25: benzyloxycarbonyl-D-seryl-S-methylcysteinyl-argininal (peptide)
peptide: Cbz-[dS]-Cys(Me)-Arg-{aldehyde′}
B26: benzyloxycarbonyl-threonyl-alanyl-argininal (peptide)
peptide: Cbz-Thr-Ala-[argininal]
B27: benzyloxycarbonyl-D-allothreonyl-alanyl-argininal (peptide)
peptide: Cbz-[d(aThr)]-Ala-Arg-{aldehyde′}
B28: cyclohexylmethyloxycarbonyl-D-seryl-alanyl-argininal (peptide)
peptide: cyclohexylmethyloxycarbonyl-[dS]-Ala-[argininal]
B29: benzyloxycarbonyl-D-allothreonyl-N-methylalanyl-argininal (peptide)
peptide: Cbz-[d(aThr)]-[NMeA]-Arg-{aldehyde′}
B30: phenoxycarbonyl-D-seryl-alanyl-argininal (peptide)
peptide: phenoxycarbonyl-[dS]-Ala-[argininal]
B31: 2-naphthyloxy-carbonyl-D-seryl-alanyl-argininal (peptide)
peptide: {2‑naphthyloxycarbonyl}-[dS]-Ala-Arg-{aldehyde′}
B32: Benzenesufonyl-D-Ser-L-Ala-L-Arg-al, Trifluoroacetate Salt (peptide)
peptide: benzenesulfonyl-[dS]-Ala-Arg-{aldehyde′}
modifications: also: trifluoroacetate salt
B33: benzyloxycarbonyl-D-seryl-L-cis-4-hydroxyprolyl-argininal (peptide)
peptide: Cbz-[dS]-[cisHyp]-Arg-{aldehyde′}
B34: cyclohexylmethylazacarbonyl-D-seryl-alanyl-argininal (peptide)
peptide: cyclohexylmethylazacarbonyl-[dS]-Ala-[argininal]
B35: benzyloxycarbonyl-D-threonyl-alanyl-argininal (peptide)
peptide: Cbz-[dT]-Ala-[argininal]
B36: N-α-benzyloxycarbonyl-N-β-methyloxycarbonyl-D-2,3-diaminopropionyl-alanyl-argininal (peptide)
peptide: Cbz-[dDap](methyloxycarbonyl)-Ala-[argininal]
B37: N-α-benzyloxycarbonyl-N-β-2-phenylethylcarbonyl-D-2,3-diaminopropionyl-alanyl-argininal (peptide)
peptide: Cbz-[dDap](2‑phenylethylcarbonyl)-Ala-[argininal]
B38: benzyloxycarbonyl-D-2-aminobutyryl-L-alanyl-argininal (peptide)
peptide: Cbz-[dAbu]-Ala-[argininal]
B39: benzyloxycarbonyl-D-seryl-sarcosyl-argininal (peptide)
peptide: Cbz-[dS]-[Sar]-[argininal]
B40: 3-cyclohexylpropionyl-D-seryl-alanyl-argininal (peptide)
peptide: {Propanoyl(3-cHex)}-[dS]-Ala-Arg-{aldehyde′}
B41: isovaleryl-D-seryl-alanyl-argininal (peptide)
peptide: Isovaleryl-[dS]-Ala-[argininal]
B42: benzyloxycarbonyl-seryl-alanyl-argininal (peptide)
peptide: Cbz-Ser-Ala-[argininal]

“And” between values parts separate entries of the source, which are not always exact repeats. Equal entries are not always repeated. Non-standard residues stand in square brackets, D forms with d. Primed or numbered codes have the meaning given here. No end group written: not given here. *: point of attachment. cyclohexylmethylazacarbonyl = cyclohexylmethylazacarbonyl N-terminal cap, introduced with cyclohexylmethyl isocyanate, O=C(NCC1CCCCC1)*; benzylazacarbonyl = benzylazacarbonyl N-terminal cap (benzylaminocarbonyl), introduced with benzyl isocyanate, O=C(NCc1ccccc1)*; Argininal = arginine aldehyde, N=C(N)NCCC[C@@H](C=O)N*; argininal = arginine aldehyde, N=C(N)NCCC[C@@H](C=O)N*; aldehyde′ = argininal (arginine aldehyde) C-terminus; Propanoyl(3-cHex) = O=C(CCC1CCCCC1)*; Isobutyloxycarbonyl = CC(C)COC(=O)*; d(aThr) = C[C@@H](O)[C@@H](N)C(=O)O; cisHyp = O=C(O)[C@@H]1C[C@H](O)CN1; Isopropoxycarbonyl = CC(C)OC(=O)*; 3‑phenylpropyl = c1ccc(CCC*)cc1; d(hSer) = N[C@H](CCO)C(=O)O; Isovaleryl = CC(C)CC(=O)*; NMeA = CN[C@@H](C)C(=O)O; dAbu = CC[C@@H](N)C(=O)O; dDap = NC[C@@H](N)C(=O)O; Cbz = O=C(OCc1ccccc1)*; Sar = CNCC(=O)O

Data on 42 molecules can be found in patent US6432922 (CORVAS INTERNATIONAL, dated 2002).

Sequence of Human rt-PA (Activase), obtained from Genentech Inc. (P00750 36-562 limits assumed): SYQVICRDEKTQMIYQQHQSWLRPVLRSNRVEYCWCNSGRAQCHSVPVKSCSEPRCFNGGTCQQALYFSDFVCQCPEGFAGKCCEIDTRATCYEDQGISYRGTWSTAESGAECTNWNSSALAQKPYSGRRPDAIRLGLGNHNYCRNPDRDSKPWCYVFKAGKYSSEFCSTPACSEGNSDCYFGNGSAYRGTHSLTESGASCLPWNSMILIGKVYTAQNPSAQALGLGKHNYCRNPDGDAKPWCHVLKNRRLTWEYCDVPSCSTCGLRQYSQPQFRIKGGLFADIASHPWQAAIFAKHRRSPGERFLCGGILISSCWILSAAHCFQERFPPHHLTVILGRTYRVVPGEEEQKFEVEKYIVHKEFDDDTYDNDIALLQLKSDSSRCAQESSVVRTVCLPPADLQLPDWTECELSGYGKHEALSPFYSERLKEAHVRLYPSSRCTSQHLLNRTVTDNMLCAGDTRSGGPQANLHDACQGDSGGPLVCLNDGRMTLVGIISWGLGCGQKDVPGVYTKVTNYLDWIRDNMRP

The first experiment concerns the target Urokinase (Abbokinase), manufactured by Abbott Laboratories (UniProt P00749 156-431). The experiment can be described thus: cell-based or functional assay.
One may read the IC50 as the concentration that inhibits the measured activity by half. A higher IC50 goes with weaker potency in that assay. B1 came in with an IC50 of less than 100 nM.

On to B2, for which the IC50 was ≥ 100 nM and ≤ 250 nM.

For the molecule B3, the IC50 is less than 100 nM.

The molecule B4 registered an IC50 of less than 100 nM.

B5: the IC50 was ≥ 100 nM and ≤ 250 nM.

In turn, B6 registered an IC50 of less than 100 nM.

Regarding B7, the IC50 was ≥ 100 nM and ≤ 250 nM.

In turn, B8 returned an IC50 of less than 100 nM.

Consider B9, for which the IC50 was ≥ 100 nM and ≤ 250 nM.

On to B10, for which the IC50 is less than 100 nM.

Turning to B11, the IC50 was less than 100 nM.

For B12, the half-maximal inhibitory concentration (IC50) is ≥ 100 nM and ≤ 250 nM.

Molecule B13 displayed an IC50 of less than 100 nM.

On to B14, for which the IC50 is ≥ 100 nM and ≤ 250 nM.

As to B15, the IC50 is less than 100 nM.

Take B16: the IC50 is less than 100 nM.

As to B17, the IC50 is ≥ 100 nM and ≤ 250 nM.

Take B18: the IC50 was less than 100 nM.

For B19, the IC50 is ≥ 100 nM and ≤ 250 nM.

As for B20, the IC50 was less than 100 nM.

Regarding B21, the IC50 is less than 100 nM.

B22 showed an IC50 of less than 100 nM.

With B23, the IC50 is ≥ 100 nM and ≤ 250 nM.

B24 returned an IC50 of less than 100 nM.

As to B25, the IC50 is ≥ 100 nM and ≤ 250 nM.

As to B26, the IC50 is ≥ 100 nM and ≤ 250 nM.

Turning to B27, the IC50 is less than 100 nM.

Consider B28, for which the 50% inhibitory concentration (IC50) is less than 100 nM.

As for B29, the IC50 was ≥ 100 nM and ≤ 250 nM.

Turning to B30, the IC50 was less than 100 nM.

For the molecule B31, the IC50 is less than 100 nM.

The molecule B32 gave an IC50 of less than 100 nM.

Molecule B33 showed an IC50 of less than 100 nM.

As to B34, the IC50 is ≥ 100 nM and ≤ 250 nM.

A further experiment has as its target Human rt-PA (Activase), obtained from Genentech Inc. (human, UniProt P00750 36-562). In words: cell-based or functional assay.
B1 had an IC50 greater than 2500 nM.

B2 showed an IC50 greater than 2500 nM.

The molecule B35 yielded an IC50 greater than 2500 nM.

The molecule B3 returned an IC50 greater than 2500 nM.

For the molecule B36, the IC50 was greater than 2500 nM.

With B4, the IC50 is greater than 2500 nM.

The molecule B5 had an IC50 greater than 2500 nM.

B6 returned an IC50 greater than 2500 nM.

Take B8: the IC50 was greater than 2500 nM.

B9 displayed an IC50 greater than 2500 nM.

In the case of B37, the IC50 is greater than 2500 nM.

For the molecule B10, the IC50 is greater than 2500 nM.

B11: the IC50 was greater than 2500 nM.

B38: the IC50 is greater than 2500 nM.

B12 yielded an IC50 greater than 2500 nM.

In the case of B13, the IC50 was greater than 2500 nM.

Regarding B14, the IC50 was greater than 2500 nM.

For B15, the IC50 was greater than 2500 nM.

In the case of B16, the IC50 was greater than 2500 nM.

With B17, the IC50 is greater than 2500 nM.

On to B18, for which the IC50 was greater than 2500 nM.

Regarding B20, the IC50 was greater than 2500 nM.

In turn, B22 showed an IC50 greater than 2500 nM.

Regarding B39, the IC50 is greater than 2500 nM.

The molecule B23 came in with a half-inhibitory concentration (IC50) greater than 2500 nM.

B40 showed an IC50 greater than 2500 nM.

B24 yielded an IC50 greater than 2500 nM.

Regarding B25, the IC50 is greater than 2500 nM.

The molecule B26 gave an IC50 greater than 2500 nM.

In the case of B41, the IC50 was greater than 2500 nM.

With B42, the IC50 was greater than 2500 nM.

Take B27: the IC50 was greater than 2500 nM.

Take B28: the IC50 was greater than 2500 nM.

Take B30: the IC50 was greater than 2500 nM.

In the case of B31, the IC50 was greater than 2500 nM.

Turning to B32, the IC50 is greater than 2500 nM.

B33: the IC50 was greater than 2500 nM.

As for B34, the IC50 is greater than 2500 nM.

The target in another experiment is Purified human plasmin, obtained from Enzyme Research Laboratories, Inc. (human, UniProt P00747 97-810, limits assumed). The experiment can be described thus: cell-based or functional assay.
Sequence of Purified human plasmin, obtained from Enzyme Research Laboratories, Inc. (P00747 97-810 limits assumed): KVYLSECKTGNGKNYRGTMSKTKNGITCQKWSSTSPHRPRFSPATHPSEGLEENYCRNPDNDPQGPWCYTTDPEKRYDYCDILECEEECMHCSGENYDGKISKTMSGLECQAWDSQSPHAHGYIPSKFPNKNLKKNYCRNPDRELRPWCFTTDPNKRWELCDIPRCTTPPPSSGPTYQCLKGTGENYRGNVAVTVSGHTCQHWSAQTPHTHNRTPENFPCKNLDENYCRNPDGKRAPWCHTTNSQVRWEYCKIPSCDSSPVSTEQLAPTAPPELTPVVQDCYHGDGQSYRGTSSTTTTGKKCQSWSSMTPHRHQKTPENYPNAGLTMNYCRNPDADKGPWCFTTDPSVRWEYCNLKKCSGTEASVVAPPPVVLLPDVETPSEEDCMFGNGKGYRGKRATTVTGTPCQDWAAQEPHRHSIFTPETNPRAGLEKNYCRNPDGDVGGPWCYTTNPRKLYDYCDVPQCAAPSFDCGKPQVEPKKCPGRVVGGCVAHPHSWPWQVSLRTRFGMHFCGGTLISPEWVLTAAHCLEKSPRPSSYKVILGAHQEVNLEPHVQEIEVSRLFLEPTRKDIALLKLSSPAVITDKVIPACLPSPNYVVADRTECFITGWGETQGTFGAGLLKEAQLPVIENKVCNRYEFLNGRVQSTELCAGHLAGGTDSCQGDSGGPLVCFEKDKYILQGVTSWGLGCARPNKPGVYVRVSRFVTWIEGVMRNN
For the molecule B5, the IC50 was less than 100 nM.

Consider B9, for which the IC50 is ≥ 100 nM and ≤ 250 nM.

With B12, the IC50 was greater than 2500 nM.

Take B20: the IC50 was greater than 2500 nM.

Molecule B40 returned an IC50 greater than 2500 nM.

Molecule B41 yielded a half-inhibitory concentration (IC50) greater than 2500 nM.

B34 showed an IC50 greater than 2500 nM.
